These results are taken from patent US4587340A, “Biopterin analogs” (Burroughs Wellcome Co., priority 1984, dated 1986).

Substrate in data set [1]: C[C@H](O)[C@H](O)[C@H]1CNc2nc(N)[nH]c(=O)c2N1
Briefly: purified protein, by the assay type.

Substrate in data set [2]: COCC1CNc2nc(N)[nH]c(=O)c2N1
In words: Dihydropteridine reductase assay. It is filed as biochemical. Conditions: other: quinonoid dihydro form of the pterin. Here is the method: Dihydropteridine reductase was assayed by the method of Craine, et al., (J. Biol. Chem., 247, 6082 (1972)).

Substrate in data set [3]: C[C@H](O)[C@H](O)[C@H]1CNc2nc(N)[nH]c(=O)c2N1
In words: cells, lysate or membranes named.

Substrate in data set [4]: COCC1CNc2nc(N)[nH]c(=O)c2N1
Briefly: Tryptophan hydroxylase cofactor assay. It is filed as biochemical.

Substrate in data set [5]: COCC1CNc2nc(N)[nH]c(=O)c2N1
Briefly: Phenylalanine hydroxylase cofactor assay. Conditions: other: rat liver enzyme. It is filed as biochemical.

B1: Dihydropteridine reductase (Homo sapiens) (protein)
chain: MAAAAAAGEARRVLVYGGRGALGSRCVQAFRARNWWVASVDVVENEEASASIIVKMTDSFTEQADQVTAEVGKLLGEEKVDAILCVAGGWAGGNAKSKSLFKNCDLMWKQSIWTSTISSHLATKHLKEGGLLTLAGAKAALDGTPGMIGYGMAKGAVHQLCQSLAGKNSGMPPGAAAIAVLPVTLDTPMNRKSMPEADFSSWTPLEFLVETFHDWITGKNRPSSGSLIQVVTTEGRTELTPAYF
With B1, the Km (in general, the substrate concentration at which the rate is half of its maximum) came out at 1.8 µM in data set [1] (other: quinonoid dihydro form of the pterin) and 7 µM in data set [2].

B2: Tryptophan hydroxylase (Rattus norvegicus) (protein)
chain: MQPAMMMFSSKYWARRGLSLDSAVPEEHQILGGLTQNKATASKSEDKRSGKDTSESSKTAVVFSLKNEVGGLVRALRLFQEKHVNMLHIESRRSRRRSSEVEIFVDCECGKTEFNELIQLLKFQTTIVTLNPPDNIWTEEEELEDVPWFPRKISELDRCSHRVLMYGTELDADHPGFKDNVYRQRRKYFVDVAMGYKYGQPIPRVEYTEEETKTWGVVFRELSKLYPTHACREYLKNFPLLTKYCGYREDNVPQLEDVSMFLKERSGFTVRPVAGYLSPRDFLAGLAYRVFHCTQYVRHGSDPLYTPEPDTCHELLGHVPLLADPKFAQFSQEIGLASLGASDEDVQKLATCYFFTIEFGLCKQEGQLRAYGAGLLSSIGELKHALSDKACVKAFDPKTTCLQECLITTFQDAYFVSESFEEAKEKMRDFAKSITRPFSVYFNPYTQSIEILKDTRSIENVVQDLRSDLNTVCDALNKMNQYLGI
notes: The preparation of tryptophan hydroxylase was a crude 30,000xg supernatant; from tissue
With B2, the figures for the Michaelis constant (Km) in data set [3] and in data set [4] were 82 µM and 103 µM, respectively.

B3: Phenylalanine hydroxylase (Rattus norvegicus) (protein)
chain: MAAVVLENGVLSRKLSDFGQETSYIEDNSNQNGAISLIFSLKEEVGALAKVLRLFEENDINLTHIESRPSRLNKDEYEFFTYLDKRTKPVLGSIIKSLRNDIGATVHELSRDKEKNTVPWFPRTIQELDRFANQILSYGAELDADHPGFKDPVYRARRKQFADIAYNYRHGQPIPRVEYTEEEKQTWGTVFRTLKALYKTHACYEHNHIFPLLEKYCGFREDNIPQLEDVSQFLQTCTGFRLRPVAGLLSSRDFLGGLAFRVFHCTQYIRHGSKPMYTPEPDICHELLGHVPLFSDRSFAQFSQEIGLASLGAPDEYIEKLATIYWFTVEFGLCKEGDSIKAYGAGLLSSFGELQYCLSDKPKLLPLELEKTACQEYSVTEFQPLYYVAESFSDAKEKVRTFAATIPRPFSVRYDPYTQRVEVLDNTQQLKILADSINSEVGILCNALQKIKS
notes: Phenylalanine hydroxylase was prepared from rat liver using hydrophobic chromatography; from tissue; host or cells: rat liver
For the protein B3, the Km in data set [1] (other: rat liver enzyme) turned out to be 7.9 µM; in data set [5] it was 12.9 µM.
